Laboratory results from the Human Domainome abundance scans (Beltran et al. 2025).
± gives the uncertainty stated by the source.

B1: Bromodomain adjacent to zinc finger domain protein 2B, residues 1927 to 1982; numbered along this chain, Q9UIF8 (parent)
chain: KSIMKVYCQICRKGDNEELLLLCDGCDKGCHTYCHRPKITTIPDGDWFCPACIAKA

Variants of: B1
Assay: abundance fitness (aPCA) (normalised: wild type 0, dead -1); higher = more abundant; growth selection in yeast, the domain comes from the species named
Conditions: Homo sapiens

In order of rising abundance fitness:
1. KSIMKVYCQIQRKGDNEELLLLCDGCDKGCHTYCHRPKITTIPDGDWFCPACIAKA [C11Q]  -1.19 ± 0.18
2. KSIMKVYCQIVRKGDNEELLLLCDGCDKGCHTYCHRPKITTIPDGDWFCPACIAKA [C11V]  -1.16 ± 0.099
3. KSIMKVYCQICRKGDNEELLLLCDGCDKGCHTYCHRPKITTIPDGDWFWPACIAKA [C49W]  -0.932 ± 0.1
4. KSIMKVYCQIKRKGDNEELLLLCDGCDKGCHTYCHRPKITTIPDGDWFCPACIAKA [C11K]  -0.887 ± 0.21
5. KSIMKVYCQICRKGDNEELLLLCDGCDKGCHTYCHRPKITTIPDGDWFMPACIAKA [C49M]  -0.859 ± 0.17
6. KSIMKVYCQICRKGDNEELLLLCDGCDKGCHTYYHRPKITTIPDGDWFCPACIAKA [C34Y]  -0.659 ± 0.15
7. KSIMKVYCQICRKGDNEELLLLCDGCDKGCHTYDHRPKITTIPDGDWFCPACIAKA [C34D]  -0.63 ± 0.14
8. KSIMKVYCQICRKGDNEELLLLCDGCDKGCQTYCHRPKITTIPDGDWFCPACIAKA [H31Q]  -0.622 ± 0.11
9. KSIMKVYCQICRKGDNEELLLLCDGCDKGCNTYCHRPKITTIPDGDWFCPACIAKA [H31N]  -0.553 ± 0.14
10. KSIMKVYCQICRKGDNEELLLLCDGCDKGCHTYCHRPKITTIPDGDWFCPACIAKP [A56P]  -0.533 ± 0.26
11. KSIMKVYCQICRKGDNEELLLLCDGCDKGCHTYCHRPKITTIPDGYWFCPACIAKA [D46Y]  -0.375 ± 0.17
12. KSIMKVYCQICRKGDNEELLHLCDGCDKGCHTYCHRPKITTIPDGDWFCPACIAKA [L21H]  -0.37 ± 0.15
13. KSIMKVYCQICRKGDNEEFLLLCDGCDKGCHTYCHRPKITTIPDGDWFCPACIAKA [L19F]  -0.294 ± 0.17
14. KSIMKVYCQICRKGDNEELLLLCDLCDKGCHTYCHRPKITTIPDGDWFCPACIAKA [G25L]  -0.266 ± 0.09
15. KSIMKVYCQICRKGDNEELLLLCDGCDKGCHTYCHRQKITTIPDGDWFCPACIAKA [P37Q]  -0.239 ± 0.1
16. KSIMKVYCQICRKGDNEELLLLCDGCDKGCHTYCHRMKITTIPDGDWFCPACIAKA [P37M]  -0.227 ± 0.094
17. KSIMKVYCQICRKGDNEELLLLCDGCDKGCHTNCHRPKITTIPDGDWFCPACIAKA [Y33N]  -0.213 ± 0.16
18. KSIMKVYCQICRKGDNEELLLLCDGCDKGCHTYCHRPKITTQPDGDWFCPACIAKA [I42Q]  -0.201 ± 0.11
19. KSIMKVYCQICRKGDNEELLLLCDGCDKGCHTYCHRPKITLIPDGDWFCPACIAKA [T41L]  -0.187 ± 0.1
20. KSIMKVYCQICRRGDNEELLLLCDGCDKGCHTYCHRPKITTIPDGDWFCPACIAKA [K13R]  -0.177 ± 0.069
21. KSIMKVYCQICRKGDNEELLLLCDGCDKGCHTYCHRPKITTIPDGDDFCPACIAKA [W47D]  -0.15 ± 0.11
22. KSIMKVYCQICRKGDNEELLLLCDGCDKGCHTYCHRPKITTIPDGDKFCPACIAKA [W47K]  -0.127 ± 0.11
23. KSIMKVYCQICRKGDNEELLLLCDGCDKGCHTYCHRPKITAIPDGDWFCPACIAKA [T41A]  -0.112 ± 0.078
24. KSIMKVYCQICRKGDNEELLLLCDGCDKGCHTYCHRPKITTIPVGDWFCPACIAKA [D44V]  -0.105 ± 0.1
25. KSIMKVYCQICRKGDNEELLLLCDGCDKGCHTACHRPKITTIPDGDWFCPACIAKA [Y33A]  -0.105 ± 0.074
26. KSEMKVYCQICRKGDNEELLLLCDGCDKGCHTYCHRPKITTIPDGDWFCPACIAKA [I3E]  -0.103 ± 0.087
27. KSIMKVYCQICRNGDNEELLLLCDGCDKGCHTYCHRPKITTIPDGDWFCPACIAKA [K13N]  -0.102 ± 0.13
28. KSIMKVYCFICRKGDNEELLLLCDGCDKGCHTYCHRPKITTIPDGDWFCPACIAKA [Q9F]  -0.099 ± 0.15
29. KSIMKVYCQICRKGDNEELLLLCDGCSKGCHTYCHRPKITTIPDGDWFCPACIAKA [D27S]  -0.099 ± 0.09
30. KSIMKVYCQICRKGDNEELLLLCDRCDKGCHTYCHRPKITTIPDGDWFCPACIAKA [G25R]  -0.096 ± 0.072
31. KSIMKVYCQICRKGDNWELLLLCDGCDKGCHTYCHRPKITTIPDGDWFCPACIAKA [E17W]  -0.092 ± 0.093
32. KSPMKVYCQICRKGDNEELLLLCDGCDKGCHTYCHRPKITTIPDGDWFCPACIAKA [I3P]  -0.081 ± 0.096
33. KSIMKVYCQICRKGDNEELLLLCDGCDKGCHTYCHRPSITTIPDGDWFCPACIAKA [K38S]  -0.059 ± 0.072
34. KSIMKVYCQICRKGDNEGLLLLCDGCDKGCHTYCHRPKITTIPDGDWFCPACIAKA [E18G]  -0.046 ± 0.092
35. KSIMKVYCQICRKGDNEELLLLCDGCDKGCHTYCHRPKITHIPDGDWFCPACIAKA [T41H]  -0.041 ± 0.16
36. KSIMKVYCGICRKGDNEELLLLCDGCDKGCHTYCHRPKITTIPDGDWFCPACIAKA [Q9G]  -0.038 ± 0.059
37. KSIMKVYCQICRAGDNEELLLLCDGCDKGCHTYCHRPKITTIPDGDWFCPACIAKA [K13A]  -0.032 ± 0.074
38. KSIMKVYCQICRKGDNEESLLLCDGCDKGCHTYCHRPKITTIPDGDWFCPACIAKA [L19S]  -0.03 ± 0.094
39. KSIMKVYCQICTKGDNEELLLLCDGCDKGCHTYCHRPKITTIPDGDWFCPACIAKA [R12T]  -0.028 ± 0.1
40. KSIMKVYCQICDKGDNEELLLLCDGCDKGCHTYCHRPKITTIPDGDWFCPACIAKA [R12D]  -0.021 ± 0.1
41. KSIMKVYCQICRKGDNEELLLLCDGCDKGCHTYCHRPKITTIPIGDWFCPACIAKA [D44I]  -0.018 ± 0.28
42. KSIHKVYCQICRKGDNEELLLLCDGCDKGCHTYCHRPKITTIPDGDWFCPACIAKA [M4H]  -0.009 ± 0.22
43. KSIMKVYCQICRKGDNEELLLLCDGCDKGCHTYCHRPKITTIPDGSWFCPACIAKA [D46S]  -0.006 ± 0.096
44. KSIMKVYCQICRKGDQEELLLLCDGCDKGCHTYCHRPKITTIPDGDWFCPACIAKA [N16Q]  0.01 ± 0.16
45. KSIMKVYCQICRKGDNEELLLLCDGCDKGCHTYCHRPKITTAPDGDWFCPACIAKA [I42A]  0.042 ± 0.1
46. KSIMKVYCQICKKGDNEELLLLCDGCDKGCHTYCHRPKITTIPDGDWFCPACIAKA [R12K]  0.043 ± 0.13
47. KSIMKVYCQICRKGDNEELLLLCNGCDKGCHTYCHRPKITTIPDGDWFCPACIAKA [D24N]  0.113 ± 0.12
